T1: IL10Rα-Fc fusion protein (human, UniProt Q13651 22-235)
T1 construct: Bought from R&D Systems; also called human IL10Rα
T1 sequence (looked up): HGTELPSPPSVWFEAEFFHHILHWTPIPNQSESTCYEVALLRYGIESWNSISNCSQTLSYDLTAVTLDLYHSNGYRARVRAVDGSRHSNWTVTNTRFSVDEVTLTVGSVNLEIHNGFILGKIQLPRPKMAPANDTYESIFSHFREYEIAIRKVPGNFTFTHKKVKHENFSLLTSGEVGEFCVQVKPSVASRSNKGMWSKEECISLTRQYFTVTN


Legend:
[1] = target: T2, recombinant cynomolgus PD-L1 (cynomolgus monkey, UniProt Q9NZQ7 19-238 (human entry)); test: ELISA, cynomolgus PD-L1 immobilised (1 µg/mL)
T2 construct: also called cynoPD-L1; Cynomolgus PD-L1.ECD
Protocol: (§1) The wells were washed with wash solution (0.05% Tween20 in imidazole-buffered saline) and blocked with 1% BSA. […] After incubation at 37° C. for 1 hr, the wells were washed with wash solution. Peroxidase-conjugated Goat anti-human kappa Light chain antibody (Sigma) was applied to each well at 37° C. for 1 h incubation. […] After washing, the wells were developed with TMB substrate for 5-10 min at RT and then stopped with 1 N HCl. Thereafter, absorbance was measured at 450 nm and 650 nm. EC50 and IC50 values were calculated using GraphPad Prism7.

[2] = target: T3, recombinant human PD-L1-mFc fusion protein (human, UniProt Q9NZQ7 19-238); test: competition ELISA, PD-L1 immobilised, competitor biotin-PD-1-Fc (30 µg/mL)
T3 construct: also called hPD-L1; huPD-L1
Protocol: To test the competition activity, serial dilutions of anti-PD-L1 or anti-PD-L1/IL10 fusion proteins were added.
A recombinant human PD-L1-mFc fusion protein (1 μg/mL), recombinant cynomolgus PD-L1 (1 μg/mL; Sino Biological), or an IL10Rα-Fc fusion protein (1 μg/mL, R&D Systems) were immobilized on 96 well microtiter plate at a concentration of 1 μg/ml in Coating Solution (SeraCare) overnight at 4° C. The wells were washed with wash solution (0.05% Tween20 in imidazole-buffered saline) and blocked with 1% BSA. Serial dilutions of anti-PD-L1 or anti-PD-L1/IL10 fusion proteins were added to wells. After incubation at 37° C. for 1 hr, the wells were washed with wash solution. Peroxidase-conjugated Goat anti-human kappa Light chain antibody (Sigma) was applied to each well at 37° C. for 1 h incubation. […] After washing, the wells were developed with TMB substrate for 5-10 min at RT and then stopped with 1 N HCl. Thereafter, absorbance was measured at 450 nm and 650 nm. EC50 and IC50 values were calculated using GraphPad Prism7.

IL10Rα-Fc fusion protein = target: T1, IL10Rα-Fc fusion protein; test: ELISA, IL10Rα-Fc immobilised (1 µg/mL)
Protocol: as §1

[3] = target: T3, recombinant human PD-L1-mFc fusion …; test: ELISA, human PD-L1-mFc immobilised (1 µg/mL), anti-human kappa-HRP detection
Protocol: as §1

[4] = target: T4, recombinant human PD-L1-His (human, UniProt Q9NZQ7 19-238); test: BLI (Octet RED96), antibody captured on AHC biosensor, PD-L1-His in solution, 1:1 model;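 note: rates obtained by 1:1 Langmuir fitting of the binding response, using a 2.5 min association phase then a 5 min dissociation phase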
T4 construct: Analyte of the BLI assay; also called hPD-L1
Protocol: Rate constants were calculated by curve fitting analyses (1:1 Langmuir model) of binding response with a 2.5-minute association and 5-minute dissociation interaction time.

[5] = target: PD-L1 on PD-L1-presenting U2OS bioassay cells (UniProt Q9NZQ7 19-290); test: cell-based or functional assay
PD-L1 on PD-L1-presenting U2OS bioassay cells, sequence (Q9NZQ7 19-290): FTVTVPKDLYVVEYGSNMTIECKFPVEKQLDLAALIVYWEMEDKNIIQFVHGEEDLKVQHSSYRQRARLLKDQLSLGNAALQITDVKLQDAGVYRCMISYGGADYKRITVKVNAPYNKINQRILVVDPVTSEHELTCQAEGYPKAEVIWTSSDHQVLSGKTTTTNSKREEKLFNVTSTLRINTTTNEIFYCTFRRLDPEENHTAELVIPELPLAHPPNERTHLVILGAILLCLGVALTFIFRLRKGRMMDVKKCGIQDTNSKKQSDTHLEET

T3 sequence (Q9NZQ7 19-238): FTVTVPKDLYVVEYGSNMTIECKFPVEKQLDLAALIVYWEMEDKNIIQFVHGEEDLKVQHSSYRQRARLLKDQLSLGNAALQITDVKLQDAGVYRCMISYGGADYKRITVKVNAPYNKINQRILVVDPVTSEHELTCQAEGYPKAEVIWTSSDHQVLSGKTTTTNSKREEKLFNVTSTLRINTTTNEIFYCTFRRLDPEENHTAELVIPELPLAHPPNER
T4 sequence (Q9NZQ7 19-238): as above
T2 sequence (Q9NZQ7 other isoform, or with tags, fused parts or gaps limits assumed): as the sequence (Q9NZQ7 19-238) above, with A33T, A34S, S62N, R68Q, Q82R, F173L, T185A, T192I, H215L counted along it

Binder	EC50 [1] [nM]	IC50 [2] [nM]	EC50 (IL10Rα-Fc fusion protein) [nM]	EC50 [3] [nM]	Kd [4] [nM]	koff [4] [s⁻¹]	kon [4] [M⁻¹ s⁻¹]	IC50, blocking PD-1/PD-L1 signaling (PathHunter PD-1 Signaling Bioassay, U2OS PD-L1 cells + Jurkat PD-1 signaling cells) [5] [nM]
Atezolizumab (antibody, also called YW243.55.S70; MPDL3280A) heavy: not shown light: DIQMTQSPSSLSASVGDRVTITCRASQDVSTAVAWQQKPGKAPKLLIYSASFLYSGVPSRFSGSGSGTDFTLTISSLQPEDFATYYCQQYLYHPATFGQGTKVEIKRRTVAAPSVFIFPPSDEQLKSGTASVVCLLNNFYPREAKVQWKVDNALQSGNSQESVTEQDSKDSTYSLSSTLTLSKADYEKHKVYACEVTHQGLSSPVTKSFNRGEC	0.14	0.239						
PHS102.YP7G (antibody, human IgG1, kappa, N297A, V domains shown, full-length human IgG1-N297A / kappa) VH: EVQLVESGGGLVQPGGSLRLSCAASGFTIDDTYIHWVRQAPGKGLEWVARIDPANGMTRYADSVKGRFMISADTSKNTAYLQMNSLRAEDTAVYYCARAFSWFPDYWGQGTLVTVSS VL: DIQMTQSPSSLSASVGDRVTITCRAGQDVYKAVAWYQQKPGKAPKLLIYWSTNLYSGVPSRFSGSGSGTDFTLTISSLQPEDFATYYCQQGSTWPLTFGQGTKVEIKR					5.51	0.00136	247000	
PHS102.YT6D (antibody, human IgG1, kappa, N297A, V domains shown) VH: EVQLVESGGGLVQPGGSLRLSCAASGFTISDGYIHWVRQAPGKGLEWVARIDPLTGRTMYADSVKGRFTISADTSKNTAYLQMNSLRAEDTAVYYCARAFSWWPDYWGQGTLVTVSS VL: DIQMTQSPSSLSASVGDRVTITCRAGQDVYKAVAWYQQKPGKAPKLLIYWSTNLYSGVPSRFSGSGSGTDFTLTISSLQPEDFATYYCQQIMSPPPTFGQGTKVEIKR					2.16	0.000713	330000	
PHS102.HSYPP411C (antibody, human IgG1, kappa, N297A, V domains shown, full-length human IgG1-N297A / kappa) VH: EVQLVESGGGLVQPGGSLRLSCAASGFTIDNTYIHWVRQAPGKGLEWVARIDPANGKTTYADSVKGRFTISADTSKNTANLQMNSLRAEDTAVYYCARSFSWWADYWGQGTLVTVSS VL: DIQMTQSPSSLSASVGDRVTITCRAGQDVYKAVAWYQQKPGKAPKLLIYWSTNLYSGVPSRFSGSGSGTDFTLTISSLQPEDFATYYCQQFNLQPTTFGQGTKVEIKR					2.03	0.000653	321000	3.74
PHS102.YP11F (antibody, human IgG1, kappa, N297A, V domains shown, full-length human IgG1-N297A / kappa) VH: EVQLVESGGGLVQPGGSLRLSCAASGFTIDNTYIHWVRQAPGKGLEWVARIDPVSGRTRYADSVKGRFTISADTSKNTADLQMNSLRAEDTAVYYCARAFSWFPDYWGQGTLVTVSS VL: DIQMTQSPSSLSASVGDRVTITCRAGQDVYKAVAWYQQKPGKAPKLLIYWSTNLYSGVPSRFSGSGSGTDFTLTISSLQPEDFATYYCQQFGATPITFGQGTKVEIKR					1.84	0.000615	334000	
PHS102.YT10H (antibody, human IgG1, kappa, N297A, V domains shown, full-length human IgG1-N297A / kappa) VH: EVQLVESGGGLVQPGGSLRLSCAASGFTISDAYIHWVRQAPGKGLEWVARIEPLSGRTDYADSVKGRFTISADTSKNTAYLQMNSLRAEDTAVYYCARAFSWFMDYWGQGTLVTVSS VL: DIQMTQSPSSLSASVGDRVTITCRAGQDVYKAVAWYQQKPGKAPKLLIYWSTNLYSGVPSRFSGSGSGTDFTLMISSLQPEDFATYYCQQHDKTPTTFGQGTKVEIKR					1.92	0.00067	350000	
PHS102.YT7H (antibody, human IgG1, kappa, N297A, full-length human IgG1-N297A / kappa) heavy: not shown light: DIQMTQSPSSLSASVGDRVTITCRAGQDVYKAVAWYQQKPGKAPKLLIYWSTNLYSGVPSRFSGSGSGTDFTLTISSLQPEDFATYYCQQHGNAPITFGQGTKVEIKRTVAAPSVFIFPPSDEQLKSGTASVVCLLNNFYPREAKVQWKVDNALQSGNSQESVTEQDSKDSTYSLSSTLTLSKADYEKHKVYACEVTHQGLSSPVTKSFNRGEC					6.16	0.00125	203000	3.48
PHS219/IL10 (antibody, human IgG1, kappa, N297A) heavy: not shown light: DIQMTQSPSSLSASVGDRVTITCRASQDVSSSVAWYQQKPGKAQKLLISWATSLYSGVPSRFSGSGSGTDFTLTISSLQPEDFATYYCQQYNNFPYTFGQGTKVEIKRTVAAPSVFIFPPSDEQLKSGTASVVCLLNNFYPREAKVQWKVDNALQSGNSQESVTEQDSKDSTYSLSSTLTLSKADYEKHKVYACEVTHQGLSSPVTKSFNRGEC		1.2	66.3	0.164				
PHS102.YT7A (antibody, human IgG1, kappa, N297A, full-length human IgG1-N297A / kappa) heavy: not shown light: DIQMTQSPSSLSASVGDRVTITCRAGQDVYKAVAWYQQKPGKAPKLLIYWSTNLYSGVPSRFSGSGSGTDFTLTISSLQPEDFATYYCQQYGIAPPTFGQGTKVEIKRTVAAPSVFIFPPSDEQLKSGTASVVCLLNNFYPREAKVQWKVDNALQSGNSQESVTEQDSKDSTYSLSSTLTLSKADYEKHKVYACEVTHQGLSSPVTKSFNRGEC					1.99	0.000603	303000	6.07
PHS102/IL10 (antibody, human IgG1, kappa, N297A) heavy: not shown light: DIQMTQSPSSLSASVGDRVTITCRAGQDVYKAVAWYQQKPGKAPKLLIYWSTNLYSGVPSRFSGSGSGTDFTLTISSLQPEDFATYYCQQGSTWPLTFGQGTKVEIKRTVAAPSVFIFPPSDEQLKSGTASVVCLLNNFYPREAKVQWKVDNALQSGNSQESVTEQDSKDSTYSLSSTLTLSKADYEKHKVYACEVTHQGLSSPVTKSFNRGEC		0.061	94.3	0.0798				4.22

The next lines start with the values.

EC50 [1] [nM]	IC50 [2] [nM]	EC50 (IL10Rα-Fc fusion protein) [nM]	EC50 [3] [nM]	Kd [4] [nM]	koff [4] [s⁻¹]	kon [4] [M⁻¹ s⁻¹]	IC50, blocking PD-1/PD-L1 signaling (PathHunter PD-1 Signaling Bioassay, U2OS PD-L1 cells + Jurkat PD-1 signaling cells) [5] [nM]	Binder
	0.124	87.2	0.0865					Atezolizumab/IL10 (antibody) heavy: not shown light: DIQMTQSPSSLSASVGDRVTITCRASQDVSTAVAWQQKPGKAPKLLIYSASFLYSGVPSRFSGSGSGTDFTLTISSLQPEDFATYYCQQYLYHPATFGQGTKVEIKRRTVAAPSVFIFPPSDEQLKSGTASVVCLLNNFYPREAKVQWKVDNALQSGNSQESVTEQDSKDSTYSLSSTLTLSKADYEKHKVYACEVTHQGLSSPVTKSFNRGEC
				1.88	0.000542	288000	3.56	PHS102.HSYPP31F (antibody, human IgG1, kappa, N297A, V domains shown, full-length human IgG1-N297A / kappa) VH: EVQLVESGGGLVQPGGSLRLSCAASGFTIEDSYIHWVRQAPGKGLEWVARIDPITGLTHYADSVKGRFTISADTSKNTAYLQMNSLRAEDTAVYYCARAFSWFPDYWGQGTLVTVSS VL: DIQMTQSPSSLSASVGDRVTITCRAGQDVYKAVAWYQQKPGKAPKLLIYWSTNLYSGVPSRFSGSGSGTDFTLTISSLQPEDFATYYCQQIMEPPVTFGQGTKVEIKR
		25.9						Avelumab/IL10 (antibody, human IgG1, lambda) heavy: not shown light: QSALTQPASVSGSPGQSITISCTGTSSDVGGYNYVSWYQQHPGKAPKLMIYDVSNRPSGVSNRFSGSKSGNTASLTISGLQAEDEADYYCSSYTSSSTRVFGTGTKVTVLGQPKANPTVTLFPPSSEELQANKATLVCLISDFYPGAVTVAWKADGSPVKAGVETTKPSKQSNNKYAASSYLSLTPEQWKSHRSYSCQVTHEGSTVEKTVAPTECS
	38900		0.204					PHS219 (antibody, human IgG1, kappa, N297A) heavy: not shown light: DIQMTQSPSSLSASVGDRVTITCRASQDVSSSVAWYQQKPGKAQKLLISWATSLYSGVPSRFSGSGSGTDFTLTISSLQPEDFATYYCQQYNNFPYTFGQGTKVEIKRTVAAPSVFIFPPSDEQLKSGTASVVCLLNNFYPREAKVQWKVDNALQSGNSQESVTEQDSKDSTYSLSSTLTLSKADYEKHKVYACEVTHQGLSSPVTKSFNRGEC
							4.87	PHS102.YT7A/IL10 (antibody, human IgG1, kappa, N297A) heavy: not shown light: DIQMTQSPSSLSASVGDRVTITCRAGQDVYKAVAWYQQKPGKAPKLLIYWSTNLYSGVPSRFSGSGSGTDFTLTISSLQPEDFATYYCQQYGIAPPTFGQGTKVEIKRTVAAPSVFIFPPSDEQLKSGTASVVCLLNNFYPREAKVQWKVDNALQSGNSQESVTEQDSKDSTYSLSSTLTLSKADYEKHKVYACEVTHQGLSSPVTKSFNRGEC
							2.47	PHS102.YT7H/IL10 (antibody, human IgG1, kappa, N297A) heavy: not shown light: DIQMTQSPSSLSASVGDRVTITCRAGQDVYKAVAWYQQKPGKAPKLLIYWSTNLYSGVPSRFSGSGSGTDFTLTISSLQPEDFATYYCQQHGNAPITFGQGTKVEIKRTVAAPSVFIFPPSDEQLKSGTASVVCLLNNFYPREAKVQWKVDNALQSGNSQESVTEQDSKDSTYSLSSTLTLSKADYEKHKVYACEVTHQGLSSPVTKSFNRGEC
	0.188	37.5	0.121					Durvalumab/IL10 (antibody, human IgG1, kappa, N297A) heavy: not shown light: EIVLTQSPGTLSLSPGERATLSCRASQRVSSSYLAWYQQKPGQAPRLLIYDASSRATGIPDRFSGSGSGTDFTLTISRLEPEDFAWYYCQQYGSLPWTFGQGTKVEIKRTVAAPSVFIFPPSDEQLKSGTASVVCLLNNFYPREAKVQWKVDNALQSGNSQESVTEQDSKDSTYSLSSTLTLSKADYEKHKVYACEVTHQGLSSPVTKSFNRGEC

— patent publication US20230078173A1 (ELIXIRON IMMUNOTHERAPEUTICS HONG KONG, published 2023)
